Results as given in publication PMC6025827 (Nature structural & molecular biology, 2018).

Biological target: the molecule itself
Assay: crystal structure

B1: miTRPV2QM (minimal rabbit TRPV2 construct with the four point mutations F470S, L505M, L508T and Q528E) (domain or fragment)
chain: LNYRKGAGASQPDLNRFDRDRLFNVVARGNPEDLAGLLEYLRRTSKYLTDSEYTEGSTGKTCLMKAVLNLQDGVNACIQPLLEIDRDSGNPQPLVNAQCTDEYYRGHSALHIAIEKRSLQCVKLLVENGANVHAKACGHFFQKNQDTCFYFGELPLSLAACTKQWDVVNYLLENPHQPASLQAQDSLGNTVLHALVMIADDSAENSALVVRMYDGLLQAGARLCPNVQLEGIPNLEGLTPLKLAAKEGKIEIFKHILQREFSAPCQSLSRKFTEWCYGPVRVSLYDLASVDSWEENSVLEIIAFHSRSPHRHRMVVLEPLNKLLQAKWDRLIPRFCFNFLCYLVYMLIFTAVAYHQPALEKQGFPPLKATAGNSMLLLGHILILLGGVYLLLGQLWYFWRRRLFIWISFMDSYSEILFLLQALLTVLSQVLCFLAIEWYLPLLVSSLVMGWTNLLYYTRGFQHTGIYSVMIEKVILRDLLRFLLVYLVFLFGFAVALVSLSREAQDEAPPYRSILDASLELFKFTIGMGELAFQEQLRFRGVVLLLLLAYVLLTYVLLLNMLIALMSETVNSVATDSWSIWKLQKAISVLEMENGYWWCRRKKQRAGVMLTVGTRPDGSPDERWCFRVGEMNWATWEQTLPRTLC
stoichiometry N: 4
